Test results from US20210275669A1.

Legend:
[1] = target: CTLA-4 on PATHHUNTER CTLA4 Jurkat cells, P16410; experiment: cell-based or functional assay
[2] = target: PD-1 on PATHHUNTER PD-1 Jurkat cells, Q15116; experiment: cell-based or functional assay
Sequence of PD-1 on PATHHUNTER PD-1 Jurkat cells, Q15116 (Q15116 25-288 limits assumed): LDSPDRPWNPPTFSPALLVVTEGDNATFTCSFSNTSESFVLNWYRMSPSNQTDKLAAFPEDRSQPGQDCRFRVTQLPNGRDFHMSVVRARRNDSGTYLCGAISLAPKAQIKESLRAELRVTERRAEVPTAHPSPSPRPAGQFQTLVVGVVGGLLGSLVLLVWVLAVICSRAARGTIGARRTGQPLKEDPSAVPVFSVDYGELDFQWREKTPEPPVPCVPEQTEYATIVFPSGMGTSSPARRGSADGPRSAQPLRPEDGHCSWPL

Sequence of CTLA-4 on PATHHUNTER CTLA4 Jurkat cells, P16410 (P16410 36-223 limits assumed): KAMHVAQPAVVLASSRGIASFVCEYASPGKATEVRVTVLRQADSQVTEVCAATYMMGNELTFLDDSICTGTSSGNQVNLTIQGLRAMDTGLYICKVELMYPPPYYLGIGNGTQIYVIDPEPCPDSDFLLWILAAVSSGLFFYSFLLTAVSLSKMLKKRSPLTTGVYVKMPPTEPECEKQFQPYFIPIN

In the case of CRRTSTGQISTLRVNITAPLSQ (modifications not checked) [peptide LD01], the % inhibition (PATHHUNTER CTLA4 assay; 100 µM; Study 2) [1] is reported as 51%, the % inhibition (PATHHUNTER CTLA4 assay; 100 µM; Study 4) [1] is reported as 16% and the % inhibition (PATHHUNTER CTLA4 assay; 100 µM; Study 6) [1] is reported as 46%. It also gave a % inhibition (PATHHUNTER PD-1 assay; 100 µM; Study 1) [2] of 50.5%, a % inhibition (PATHHUNTER PD-1 assay; 100 µM; Study 2) [2] of 79% and a % inhibition (PATHHUNTER PD-1 assay; 100 µM; Study 4) [2] of 65%. The % inhibition (PATHHUNTER PD-1 assay; 100 µM; Study 5) [2] was 24% and the % inhibition (PATHHUNTER PD-1 assay; 100 µM; Study 6) [2] was 83%.
